Measured values from the nanobody polyreactivity screen of Harvey et al. (2022).

assay: yeast display, Sf9 membrane polyspecificity reagent, FACS + sequencing; frameworks hold sequencing errors
Outline: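 Synthetic nanobody libraries on Saccharomyces cerevisiae BJ5465 were galactose-induced for 36–48 hours, stained 1 hour at 4 °C with 10% biotinylated, detergent-solubilized Sf9 membrane reagent and enriched on streptavidin microbeads. FACS then separated cells into low and high (top ~1%) gates by anti-HA (expression) and streptavidin (reagent binding) fluorescence. Genes were colony-PCR amplified, MiSeq 2 × 250 sequenced and CDR-length filtered. A clone's polyreactivity label is that of its gate of origin.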

Sequence	polyreactivity (PSR sort gate)
QVQLVESGGGLVQAGGSLRLSCAASGRIFNQYGMGWYSQARGKERELVAAIRSGDSTNYADSVKGRFTISRDNAKNTVYLQMNSLKPEDTAVDYCARDRPGDYAGYDYWGQGTQVTVSS	low polyreactivity
QVQLVESGGGLVQPRGSLRLSCAASGGTFKFYAMGWYRQAPGKDRELVAAITSGGSTNYADSVKGRFTISRDNAKNTVYLLMNSLKPEDTALYYCNADFYQRYGVFSSRRYFYWGQGTQVTVSS	low polyreactivity
QVQLVESGGGLVQAGGSLRLSCAASGGTFGLNAMGWSRLAPGKARELVADIDGRGGSTYYADSVKGRFTISRDNSKNTVYLQMNSRNPEDTAVYYCAARAPFLSVPSELDYWGQCTQVTVSS	low polyreactivity
QVQLVESGGGLVQAGGSLRLSCAAYGLTFYHYTMGWYRQAPGKERELVAAISSSGVTTYYADSVKGRFTISRDNAKNTVYLQMNSLKPEDTAVYYCAAVWYPDRVQPENGTTDSPGDYWGQGTQVTVSS	low polyreactivity
QVQLVESGGGLVQAGGSLRLSCAASGRIFHWYAMGWYSQAPGKERELVAAISTDGSTYYADSVKGRFTISRDNAKNTVYLQKNSLKPEDTAVYYCAAVPGYTHLWGGPFDYGGQGTQVTVSS	low polyreactivity
QVQLVESGRGLVQAGGSLRLSCAASGFTFGYYAMGWYRQAPGKERELVAAISASGASTYYADSVKGRFTISRDNAKNTVYLQMTSLKPEDTAVYYCAARPGQLTSPVTRTRYNYWGQGTQVTVSS	low polyreactivity
QVQLVESGGGLVQAGGSLRLSSAASGIIFITYAMGWYRQAPGKDRELVAVISFSGGGTYADSVKGRFTISRDNAKNTVYLQMNSLKPEDTAVYYCAARRHSVGDYWLIYDYWGQGTQVTVSS	low polyreactivity
QVQLVESGGGLVQAGGSLRLSCAASGRTFYIYAMGWYRQAPGKERELVAAITSVGSTNYADSVKGRFTISRDNAKNTVYLQMNSLKQEVTAVYYCAAESTEGTSGDYDYWGQGTQVTVSS	low polyreactivity
QVQLVESGGGLVQAGGSLRLSCAASGSIFGYYTKVWYRQARGKEREFVAAINTSGGSTYADSVKGRCTISRDNAKNTVYLQMNSLKPEDTAVYYCAADGYYEYTWGEYDSWGQGTQVTVSS	low polyreactivity
QVQLVESGGRLVQAGGSLRLSCAASGRTFHKNAMGWYRQAPGKERELVAAISGSGGSTYYADSVKGRFTISRDNAKNTVYLQMNSLKPEDTAVYYCAADSSYYEEDYWGQGTHVTVSS	high polyreactivity
QVQLVESGGGLVQAGGSLRLSCAASGRTFYLYAMGWYIQAPGKERELVAGISRSGGSTYYADSVKGRFTISRDNAKNTVYLQMNSLKPEDTAVYYCAAGYYYWGQGTQVTVSS	high polyreactivity
QVQHVESVGGLVQAGGSLRLSCAASGSIFGRYAMGWYRHAPGKERELVAAISWSGGSTYYADSVKGRFTISRDNAKNTVYLQMNSLKPEDTAVYYCAATTYSGFDYWGQGTQVTVSS	high polyreactivity
QVQLVESGGGLVQEGGSLRLSCAPSGFIFRRNAMGAYRQAPGKERELVAAITKSGGSTYYADSVKGRFTISRDNAKNTVYLQMNSLKPEDTAVYYCAAPTWTRSSFDYWGQGTQVTVSS	high polyreactivity
QVQLVESGGGLVQAGGSLRLSCAASGRTFRYYAMGWYRQAPGKERELVADISWSGGRTTYADSVKGRFTISRDNAKNTVYLQMNSLKPEDTAVYYCAKVLYYPSHVSWGQGTQVTVSS	high polyreactivity
QVQLVESGGGLVQAGGSLRLSCAASGRIFGVYAKGWYRQAPGKERELVAAISEGGGSTNYADSVKGRFTISRDNAKNTVYLQMNSLKPEETSVYYCAATYLTGVRRYYSWGQGSQVTVSS	low polyreactivity
QVQLVESGGGLVQAGGSLRLSCAASGITFDYYAMGWYRQAPGKERELVAAISYSGGSTYYADSVKGRFTISRDNAKNTVYVQMNSLKPEDTAVYYCAAETFTISSDYYYWGQGTQVTVSS	low polyreactivity
QVQLVESGGGLVQAGGSLRLSCAASGRTFVNNAMGWYRQAPGKERELVASIRYIGGSTYYADSVKGRFTISRDNEKNTVYLQMNSLKPEDTAVYYCAALAGRRPYDYWGQGTQVTVSS	high polyreactivity
QVQLVESGGGLVQAGGSLRLSCAASGFTFPYNAMGWYRPAPGTARELVAGISYGGGRTYYADSVKGRFTFSRDNAKNTVYLQMNSLKPEDTAVYYCARRPGAWKYVYTGDYWGQGTQVTVSS	high polyreactivity
QVQLVESGGGLVQAGGSLRLSCAASGRIFYPYAMGWYRQAPGTERELVATITRTGSTYYADSVKGRFTISRDNAKNTVYLQMNSLKPEDTAVYDCAVQRSYVGPRQYNYWGQGTQVTVSS	high polyreactivity
QVQLVESGGGLVQAGGSLRLSCAASGRIFPVNALGWYRQAPGKEREFVAAISYSGVSTRYADSVKGRFTISRDKAKNTVYLQMNSLKPEDTAVYYCAARMSVREDYWGQGTQVNVSS	high polyreactivity
QVQLVESGGGLVQAGGSLRLSCAASGRILPRNSMGWSRQAPGKERELVAGISSDGSTKYADSVKGRFTISRDNAKNTVYLQMNSLKPEETAVYYCAADVVYDPNLYGYWGQGTQVTVSS	low polyreactivity

Sequence	polyreactivity (PSR sort gate)
QVQLVESGGGLVQAGGSLRLSCAASGRTFGYNAMGWYRQAPGKERELVAAISYSGGRTYYADSVKGRFTISRDNAKNTVYLQMNSLKPEDTAVYYCAAKNPYKYDYWGQGTQVTVSS	high polyreactivity
QVQLLESGGGLVQAGGSLRLSCAASGRTFYGYTMGWYRQAPGKEWELVAAISTGGGSTYYADSVKGRFTISRDTAKNTVYLQMNSMKREDTAVYYCAARGGSYSFRRYNFWGQGTQVTVSS	high polyreactivity
QDQLVESGGGLDQAGGSLRLSCAASGRIFDVYAMGWYRQAPGKERELVAAISWSGSSTYYADSVKGRFTISRDNAKNTVYLQMNSLKPEDTAVYSCATVLRVTRVDYWGQGTQVTVSS	high polyreactivity
QVQLEESGGGLVQAGGSLRLSCAASGSISVRYTMGSYRQAPGKERELVAGISRSGGTTYADSVKGRFTISRDNGKNTVYLQMNSLKQEDTAVYYCAAELRRGSGRSYKGYYYWGQGTQVSVSS	low polyreactivity
QVQLVESGGGLVQAGGSLRLSCSASGRIFSLYAMGWYRQAPGKESELVAAITWSSGSTYYADSVKGRFTISRDNAKNTVYLQMNSLKPEDTAVYYCDARVFTLLGYSYEYWGEGTQVTVSS	low polyreactivity
QVQLVESGGGLVQAGGSLRLSCAASGSIFNGNAMGWYRQAPGKERELVARITSGSSTYYADSVKGRFTISRDNAKNTVYLQMNSLKPEDTAVYYCAAVYGRYISYRWRSLYDYWGQGTQVTVSS	high polyreactivity
QVQLVESAGGLVQAGGSLRLSCAASGGIFVFYAMGWYRQAPGKERELVAAITYRGGSTSYADSVKGRFTISRDHAKNTVYLQLNSVKPEDTAVYYCAAAFYAKGQRYGYWGHGTQVTVSS	high polyreactivity
QVQLVESGGGLVQAGGSLRLSCAASGSTFFDNAMGWYRQAPGKERELVAAITWNGGRTYYADSVKGRFTISRDNAKNTVYLQMNSLKPEDTAVYYCAKVPLYGRVIYRQPDVYSWGQGTQVTVSS	high polyreactivity
QVQLVESGGGLVQAGGSLRLSCEASGSTFYRYAMGWYRQAPGKERELVDAISSSGGSTYYADSVKGRFTISRDNAKNTVYLQMNSLKPEDTAVYYCNASYRVRRFDYWGQGTQVTVSS	low polyreactivity
QVQRVESGGGLVQAGGSLRLSCAASGITFWPYAMGWYRQAPGKERELVAAIRASVGRTYYADSVKGRFTISRDNAKNTVYLQMNSLKPEDTAVYYCNAYGRYGKFRVEYDYWGQGTQVTVSS	low polyreactivity
QVQLVESGGGFVQAGGSLRLSCAASGLSFNFNAMGWYRQAPGKERELVAAIDSGGDTNYADSVKGRFSISRDNEKNTVYLQMNSLKPEDTAVYYCNTDRYPYAFEYWGQGTQVTVSS	low polyreactivity
QVQLVESGGGLVQAGGSLRLSCAASGSTFDIYVMGWYRQAPGKERELVAAISRVGNTSYADSVKGRFTISRDNAKNTVYLQMNSLNPEDTAVYYCAADAPSWYDRQYDYWGQGNQVTVSS	low polyreactivity
QVQLVESGGGLVQAGGSLRLSCAASGRIFDQYALGGSRQAPGKERELVAAITSGGSTYYADSVKGRFTISRDNAKNTVYLQMNSLKPEDTAVYYCAAEWQWYGYVLYKYYYWGQGTQVTVSS	high polyreactivity
QVQLVESGGGLVQAGGSLRLSCAASGSTSKGYAMGGYRQAPGKDRELVAAISAGGGRTYYADSVKGRFTISRENAKNTVYLQMNSLKPEDTAVYYCANAGTIYQSPREYWGQGTQVTVSS	high polyreactivity
QVLLVESGGGLVQAGGSLRLSCAASGRIFGYNTMGWYRQAPGKERELVASISYSGGGTYYADSVKGRFTISRDNAKNTVYLQMNSLKPEDTAVYYCNALSYGYDDAYGYWGQGTQVTVSS	low polyreactivity
QVQLVESGGGLVQAGGSLRLSCAASGSIFGKNAMGWYRQAPGKERELVAAITSTGTSTYYADSVKGRFTISRDTAKNTVYLQMNSLKAEDTAVYYCADETARWDYGYWGQGTQVTVSS	low polyreactivity
QVQLVESGGGLVQAGGSLRLSCAASVYGMGWYRQAPGKERELVAAISNGGTTYYADSEKGRFTISRDNAKNTVYLQMNSLKPEDTAVYYCADRSWPGGFIYYYWGQGTQVTVSS	low polyreactivity
QVQLVESGGGLVQAGGSLRLSCAASGLIFSAYDMGWYRQAPGKERELVASITSGGSTYYADSVKGRFTISRDNAKNTVYLQMNSLKPEDTAVYYCNADGGWYPYRWRYIEGEYWGQGTQVTVSS	low polyreactivity
QVQLVESGGGLVQAGGSLRLSCAASGRIFGPYAMGWYRQAPGKEREWVAAISYSGGRTRYADSVKGRFTISRDNAKNTVYLQMNSLKPEDTAVYYCNRVIPTQSLRDYYWGQGTQVTVSS	high polyreactivity
QVQLVESGGGLVQAGGSLRLSCAASGRTFRSNAMGWYRQAPGKERELVATISRRGVSTYYADSVKGRFTISRDNAKNTVYLLMNSLKPEYTAVYYCTLNVGTTSRWSYDYWGQGNQVTVSS	high polyreactivity
